From US9688764B2, “Methods of treating breast cancer by administering anti-human prolactin receptor (PRLR) antibodies” (REGENERON PHARMACEUTICALS, INC., priority 2013, dated 2017)

T1: PRLR-expressing cells (T47D) (Homo sapiens, UniProt P16471)
T1 construct: a native PRLR expressing cell line (T47D); endogenous in cells; host or cells: T47D
T1 sequence (P16471 25-622): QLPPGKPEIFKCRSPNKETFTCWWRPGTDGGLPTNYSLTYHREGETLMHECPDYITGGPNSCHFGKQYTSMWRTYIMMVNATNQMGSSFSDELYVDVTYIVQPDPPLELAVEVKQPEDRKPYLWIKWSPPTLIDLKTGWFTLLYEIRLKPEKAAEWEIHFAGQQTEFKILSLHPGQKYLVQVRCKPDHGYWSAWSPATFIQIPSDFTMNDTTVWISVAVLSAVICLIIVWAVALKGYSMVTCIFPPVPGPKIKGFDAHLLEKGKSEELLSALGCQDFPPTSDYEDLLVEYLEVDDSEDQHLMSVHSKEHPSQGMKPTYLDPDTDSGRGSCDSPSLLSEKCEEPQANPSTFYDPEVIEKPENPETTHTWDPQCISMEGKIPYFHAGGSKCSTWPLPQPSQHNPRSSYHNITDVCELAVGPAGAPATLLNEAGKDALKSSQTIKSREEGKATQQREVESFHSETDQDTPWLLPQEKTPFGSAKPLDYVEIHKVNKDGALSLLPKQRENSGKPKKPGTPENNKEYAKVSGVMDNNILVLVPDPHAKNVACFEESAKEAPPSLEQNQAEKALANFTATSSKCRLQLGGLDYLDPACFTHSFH


Legend:
[1] = molecular target: T2, hPRLR.mFc (soluble dimeric human PRLR) (Homo sapiens, UniProt P16471); assay: Surface plasmon resonance (Biacore T200), mAb-capture format; assay type: binding; details: antibody-capture format, analyte hPRLR.mFc
T2 construct: dimeric (hPRLR.mFc)
T2 sequence (P16471 with tags, fused parts or gaps): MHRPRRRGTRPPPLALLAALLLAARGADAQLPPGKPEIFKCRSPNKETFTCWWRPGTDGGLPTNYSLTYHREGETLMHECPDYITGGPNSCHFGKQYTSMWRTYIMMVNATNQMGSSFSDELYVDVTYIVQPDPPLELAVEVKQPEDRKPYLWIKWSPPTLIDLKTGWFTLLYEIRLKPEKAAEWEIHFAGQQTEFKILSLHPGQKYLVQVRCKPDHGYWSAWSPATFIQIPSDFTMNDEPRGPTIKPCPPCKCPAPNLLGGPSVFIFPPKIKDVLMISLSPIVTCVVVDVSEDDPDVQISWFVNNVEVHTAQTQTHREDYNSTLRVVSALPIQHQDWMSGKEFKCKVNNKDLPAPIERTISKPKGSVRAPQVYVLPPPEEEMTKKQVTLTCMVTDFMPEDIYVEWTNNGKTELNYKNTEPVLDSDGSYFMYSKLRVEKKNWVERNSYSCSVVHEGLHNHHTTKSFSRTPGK
Procedure: (§1) Antibodies, expressed as human IgG1 Fc “[…]” designations), were captured onto an anti-human Fc sensor surface (mAb-capture format), and soluble monomeric (hPRLR.mmh; SEQ ID NO:401, or macaca fascicularis (mf) PRLR.mmh; SEQ ID NO:403) or dimeric (hPRLR.mFc; SEQ ID NO:402) PRLR protein was injected over the sensor surface. Measurements were conducted on a T200 Biacore instrument. Kinetic association (ka) and dissociation (kd) rate constants were determined by processing and fitting the data to a 1:1 binding model using Scrubber 2.0 curve fitting software.

[2] = molecular target: T3, hPRLR.mmh (soluble monomeric human PRLR) (Homo sapiens, UniProt P16471); assay: as above; assay type: binding; details: antibody-capture format, analyte hPRLR.mmh
T3 construct: soluble monomeric (hPRLR.mmh); mmh (myc-myc-hexahistidine)
T3 sequence (P16471 with tags, fused parts or gaps): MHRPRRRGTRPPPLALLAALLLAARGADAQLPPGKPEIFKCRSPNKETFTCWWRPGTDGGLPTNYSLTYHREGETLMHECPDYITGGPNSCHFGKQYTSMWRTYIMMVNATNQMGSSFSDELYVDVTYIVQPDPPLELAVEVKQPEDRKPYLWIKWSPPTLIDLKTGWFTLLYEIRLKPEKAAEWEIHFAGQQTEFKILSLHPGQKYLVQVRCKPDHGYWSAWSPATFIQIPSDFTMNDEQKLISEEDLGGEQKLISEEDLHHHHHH
Procedure: as §1

[3] = molecular target: mfPRLR.mmh (monomeric macaca fascicularis PRLR); assay: as above; assay type: binding; details: antibody-capture format, analyte mfPRLR.mmh
Chain of mfPRLR.mmh (monomeric macaca fascicularis PRLR) (as listed by the source): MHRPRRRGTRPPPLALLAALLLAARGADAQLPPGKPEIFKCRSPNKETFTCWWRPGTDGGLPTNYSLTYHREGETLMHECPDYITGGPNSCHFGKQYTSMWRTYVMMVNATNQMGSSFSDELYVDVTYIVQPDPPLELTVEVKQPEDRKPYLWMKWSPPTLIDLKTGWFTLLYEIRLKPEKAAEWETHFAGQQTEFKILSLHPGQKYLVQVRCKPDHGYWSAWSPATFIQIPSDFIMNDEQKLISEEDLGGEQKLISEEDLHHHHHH
Procedure: as §1

[4] = molecular target: T1, PRLR-expressing cells (T47D); assay: Antibody binding and internalization by PRLR-expressing cells (imaging); assay type: cell-based; details: [mAb] (0.67 nM); for % Internalization relative to Control I: alexa488 intensity in intracellular vesicles, 1 h at 37° C.; for % Total Binding relative to Control I: whole cell alexa488 intensity at 37° C.
Procedure: In this Example, the internalization of anti-PRLR antibodies by PRLR-expressing cells (T47D) was assessed. Briefly, 20,000 T47D cells were seeded in collagen coated 96 well plates. […] Cells were then incubated with alexa488 conjugated anti-hFc Fab secondary antibodies for 30 minutes on ice followed by two additional PBS washes. Antibodies were allowed to internalize for 1 h at 37° C. in internalization buffer (PBS+2% FBS) or remained at 4° C. Cells were fixed in 4% formaldehyde, nuclei were stained with DRAQ5 (Cell signaling), and images were acquired on the ImageXpress micro XL (Molecular Devices). Whole cell alexa488 intensity at 37° C. (Binding) and the alexa488 intensity in the intracellular vesicles at 37° C. (Internalization) were determined via Columbus image analysis software (PerkinElmer).

[5] = test system: HEK293/hPRLR/STAT5-Luc cells (human PRLR); assay: STAT5-Luc luciferase reporter assay, blocking of PRL-mediated receptor activation; assay type: cell-based; details: for Percent Blocking at 100 nM Antibody: 5 nM PRL; for IC50: 5 nM constant PRL, 6 hr at 37° C.
Description: The ability of anti-PRLR antibodies to block prolactin (PRL)-mediated receptor activation was examined in a luciferase-based reporter assay. The endocrine hormone PRL binds to the extracellular domain of its cognate receptor PRLR, triggering rapid homodimerization and activating several downstream signaling cascades.
In this example, an engineered cell line was used to determine the ability of anti-PRLR antibodies to block ligand activation of the PRLR receptor. Briefly, HEK293/hPRLR/STAT5-Luc cell lines with stable incorporation of a human PRLR expression cassette and the STAT5-dependent luciferase reporter were generated via sequential rounds of Lipofectamine® 2000-mediated transfection (LifeTechnologies, Carlsbad, Calif.). Cells were selected for at least two weeks in the presence of 500 μg/mL G418 (hPRLR) and 100 μg/mL hygromycin B (STAT5-Luc). The STAT5-Luc assay utilized 2×10^5 HEK293/hPRLR/STAT5-Luc cells seeded in complete growth medium on PDL-coated 96 well plates grown overnight at 37° C., 5% CO2. To generate antibody inhibition curves, cells were incubated (6 hr at 37° C.) with serially diluted anti-human PRLR antibodies (100 nM to 24 pM) in the presence of 5 nM constant PRL before recording signal. PRL dose response curves were generated by the addition of serially diluted PRL (100 nM to 24 pM) to cells and recording signal after a 6 hr (37° C.) incubation in the absence of antibodies. The ability of the antibodies to activate PRLR in the absence of ligand was also assessed.
Luciferase activity was measured with ONE-GLO™ reagent (Promega, Madison, Wis.). Relative light units (RLUs) were measured on a Victor luminometer (Perkin Elmer, Shelton, Conn.). EC50/IC50 values were determined from a four-parameter logistic equation over an 8-point response curve using GraphPad Prism. Percent blocking and percent activation are reported for the highest antibody dose.

Row | Molecule | Kd ([1]; 25° C.) [pM] | T½ ([1]; 25° C.) [min] | Kd ([1]; 37° C.) [pM] | T½ ([1]; 37° C.) [min] | Kd ([2]; 25° C.) [pM] | T½ ([2]; 25° C.) [min] | Kd ([2]; 37° C.) [pM] | T½ ([2]; 37° C.) [min] | Kd ([3]; 25° C.) [pM] | T½ ([3]; 25° C.) [min] | Kd ([3]; 37° C.) [pM] | T½ ([3]; 37° C.) [min] | % Internalization relative to Control I [4] [%] | % Total Binding relative to Control I [4] [%] | Percent Blocking at 100 nM Antibody [5] [%] | IC50 [5] [pM]
1 | H1H6966N: human IgG1 Fc form of H2M6966N; anti-PRLR; HCVR/LCVR SEQ ID NOs 338/346 (antibody, V domains shown, human IgG1 Fc) VH: QVQLVQSGAEVQKPGASVKVSCKVSGYTLTALSIHWVRQAPGKGLEWMGNFDPGDGETIHAQKFQGRVTMTGDTSTDTAYMELSSLRSEDTAVYYCVGVTFDYWGQGTLVTVSS VL: EIVMTQSPATLSVSPGERATLSCRASQSVASNLAWYQQKPGQAPRLLLYGASTRATGIPARFSGSGSGTEFTLTISSLQSEDFALYYCQHYNNWPLTFGGGTKVEIK | 43.9 | 282.9 | 67.2 | 91.3 | 302 | 44.9 | 607 | 12.0 | 416 | 35.6 | 982 | 9.6 | 137.2 | 111.3 | 54 | –
2 | H1H6967N: human IgG1 Fc form of H2M6967N; anti-PRLR; HCVR/LCVR SEQ ID NOs 354/362 (antibody, V domains shown, human IgG1 Fc) VH: EVQLVESGGDLVHPGRSLRLSCAASGFPFDEYAMHWVRQVPGKGLEWVSGISWSNNNIGYADSVKGRFTISRDNAKNSLYLQMNSLRPEDTAFYYCAKSGIFDSWGQGTLVTVSS VL: EIVMTQSPATLSVSPGERATLSCRASQSVSRDLAWYQQKPGQAPRLLIHGASTRATGIPARFSGSGSGAEFTLIISSLQSEDFAVYYCQQYNNWPLTFGGGTKVEIK | 110 | 259.3 | 107 | 118.8 | 1350 | 34.8 | 2200 | 12.4 | 3080 | 19.7 | 4540 | 7.1 | 168.6 | 158.6 | 100 | 768
3 | H1H6762P: anti-PRLR antibody, human IgG1 Fc; HCVR/LCVR SEQ ID NOs 2/10 (antibody, V domains shown, human IgG1 Fc) VH: QVQLVESGGGVVQPGRSLRLSCAASGFTFSHYGMVWVRQPPGKGLEWVALISFDGTTKYYADSVKGRFTISRDNSKNTLYLQMNSLRAEDTAVYFCVGAIAAAAFDLWGRGTLVTVSS VL: EIVMTQSPATLSVSPGERATLSCRASQSVSSDLAWYQQKPGQAPRLLIYSASARATGIPARFTGSGSGTDFTLTISSLQSEDFAVYYCQQYNNWPMYTFGQGTKLEIK | 99.2 | 179 | 128 | 112 | 259 | 64 | 480 | 25 | 511 | 55 | 823 | 21 | 186.3 | 176.7 | 100 | 21.9
4 | H1H6975N: human IgG1 Fc form of H2M6975N; anti-PRLR; HCVR/LCVR SEQ ID NOs 370/378 (antibody, V domains shown, human IgG1 Fc) VH: EVHLVESGGGLVQPGGSLRLSCAASGFTFSSYEMNWVRQTPGKGLEWISHISSRSVIIYYADSVKGRFTISRDNAKNSLFLQMNSLRAEDTAVYFCAGITIFGIPEYWGQGTLVTVSS VL: EIVLTQSPATLSLSPGERATLSCRASQSVSSYFAWYQQKPGQAPRLLIYDASSRATGIPTRFSGSGSGTDFTLTISSLEPEDFAVYYCQQRSSWPITFGQGTRLEIK | 68.4 | 587.8 | 184 | 163.0 | 490 | 157.1 | 1290 | 42.3 | 1140 | 88.2 | 2270 | 36.4 | 214.2 | 225.9 | 100 | 241
5 | H1H6976N: human IgG1 Fc form of H2M6976N; anti-PRLR; HCVR/LCVR SEQ ID NOs 386/394 (antibody, V domains shown, human IgG1 Fc) VH: EVQLLESGGGFVQPGGSLRLSCAASGFTFSSYAMSWVRQAPGKGLEWVSIISSNGRYTYYADSVKGRFTISRDNSKNTLYLQMNSLRAEDTAVYYCATVTGDWFDPWGQGTLVTVSS VL: DIQLTQSPSFLSASVGDRVTITCWASQDIDISLAWYQQKPGKAPKLLIYAASTLQSGVPSKFSGSGSGTDFTLTISSLQPEDFSTYYCQQLNSYPITFGQGTRLDIK | 90.6 | 114.4 | 102 | 82.6 | 1590 | 13.4 | 4040 | 3.7 | 1750 | 14.2 | 5240 | 3.7 | 169.5 | 180.4 | 23 | –
